Results on two molecules are retold here after paper PMC2892505, “SUMO-1 possesses DNA binding activity”.

In series [1] the target is GST-SUMO-1. The series is described as follows: cross-linking; about 100 ng protein without or with increasing dsDNA, 10 min 37°C in NMR buffer (100 mM Na2PO4 pH 6.6, 1 mM EDTA, 1 mM DTT), UV 312 nm 10 min, SDS-PAGE and western blot (anti-GST or anti-SUMO-1); also with DNaseI treatment. (In general: Immunoblotting shows a protein as a band on a membrane.)
A further series addresses SUMO-1 (human, UniProt P63165 1-101). The series is described as follows: UV crosslinking, Western blot; NMR: 100 mM NaPi pH 6.6, 1 mM DTT, 1 mM EDTA, temperature not stated; UV crosslink: 100 ng GST-SUMO-1 with 500 ng dsDNA, buffer not stated. The settings on record: protein: recombinant; tags: untagged (GST removed by thrombin); 15N-labeled for NMR; blunt.
For series [2], the target named is GST-SUMO-1 (human, UniProt P63165 1-101). The series is described as follows: UV crosslinking, Western blot; complex migrates faster than with 65-mer; NMR: 100 mM NaPi pH 6.6, 1 mM DTT, 1 mM EDTA, temperature not stated; UV crosslink: 100 ng GST-SUMO-1 with 500 ng dsDNA, buffer not stated. The settings on record: protein: recombinant; chain copies: 2; blunt.
GST-SUMO-1 (human, UniProt P63165 1-101), sequence (P63165 whole entry): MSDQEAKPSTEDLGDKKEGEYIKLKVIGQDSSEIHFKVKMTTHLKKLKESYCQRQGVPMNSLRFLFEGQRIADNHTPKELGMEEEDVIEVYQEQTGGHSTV

SUMO-1, sequence (P63165 whole entry): as above

Consider GST-SUMO-1, for which the stoichiometry N (usually a count of units in the complex or per binding partner) in the series with GST-SUMO-1 [1] is 2.

B1: 27-mer (dsDNA)
DNA 1: CGGGGCCGGGGCGGGCCGCGCAAGCAG
DNA 2: CTGCTTGCGCGGCCCGCCCCGGCCCCG
Take B1: the binding result with SUMO-1 and with GST-SUMO-1 [2] was “binds” in each case.
